{"source": "patent US20030023034A1", "about": "(published 2003)", "binders": {"B1": {"name": "p27(Kip1) (other)", "chain": "RDLEKHCRDMEEASQRKWNFDFQNHKPLEGKYEWQEVEKGSLPEFYYRPPRPPKGACKVPAQESQDVSGSRPAAPLIGAPANSEDTHLVDPKTDPSDSQTGLAEQCAGIRKRPATDDSSTQNKRANRTEENVSDGSPNAGSVEQTPKKPGLRRRQT", "notes": "Yeast two-hybrid fusion expressed in yeast; also called p27(Kip1) bait"}}, "target": "T1, cyclophilin B (GenBank Accession No. M60857) (UniProt P23284 34-216, limits assumed)", "T1 construct": "Yeast two-hybrid fusion; also called CYC-B", "T1 sequence (P23284 34-216 limits assumed, one chain of several)": "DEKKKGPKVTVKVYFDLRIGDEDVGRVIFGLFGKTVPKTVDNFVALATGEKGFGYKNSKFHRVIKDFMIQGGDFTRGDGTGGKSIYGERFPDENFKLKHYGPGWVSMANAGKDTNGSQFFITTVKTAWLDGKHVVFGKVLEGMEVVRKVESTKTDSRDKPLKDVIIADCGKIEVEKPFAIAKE", "experiment": "yeast matrix mating test (two-hybrid), growth on selective medium", "protocol": "Briefly, cells were grown until mid-to-late log phase on media that selected for the presence of the appropriate plasmids. The two mating strains, alpha and a, were then, diluted in YAPD media, filtered onto nitrocellulose membranes, and incubated at 30 degrees Celsius for 6-8 hours. The cells were then transferred to media selective for the desired diploids, i.e., yeast harboring reporter genes for beta-galactosidase, uracil auxotrophy, and histidine auxotrophy, and expression of the vectors encoding the bait and prey. The mating products were plated on SC (synthetic complete) (Sambrook et al., 1989, A Laboratory Manual, 2nd Ed., Cold Spring Harbor Press, New York) media lacking adenine and lysine (to select for successful mating), leucine and tryptophan (to select for expression of genes encoded by both plasmids), and uracil and histidine (to select for protein interactions). This medium is herein referred to as SCS medium, for SC Selective medium.\nTo test for the specificity of p27(Kip1):FKBP-12 interaction, two general tests were first performed. In the first instance, YULH cells expressing FKBP-12 were created and plated on SC (synthetic complete) −Ura plates, grown for 1-2 days, and examined for growth. […]", "data": [{"binder": "B1", "values": [{"measurement": "binding result", "result": "no binding"}]}]}
